Key:
[1] = system: various tumors; assay: 3G4 in syngeneic and xenogeneic tumor models, overall
[2] = Binding to heparin, heparan sulfate and DNA
[3] = system: bEnd.3 cells; assay: Growth of bEnd.3 cells in vitro; assay type: cell-based; settings: 20 μg to 40 μg total IgG per well, 48 and 96 hours
Experimental: 20% DMEM alone (control) or 20% DMEM containing the antibodies (20 μg to 40 μg total IgG per well) was added 4 hours after seeding. Each clone was tested on two separate plates in triplicates. Cells were detached 48 and 96 hours later, the cell count was determined in each well and the average cell number per treatment was calculated.

[4] = Liposome competition for 3G4 binding to immobilized PS; settings: 3G4 0.1 μg/ml
Experimental: Liposomes were prepared from solutions of 5 mg of a single phospholipid in chloroform. The solutions were dried under nitrogen to form a thin layer in a round-bottomed glass flask. Ten ml of Tris buffer (0.1 M, pH 7.4) were then added and the flask was sonicated five times for 2 min. […] The mixture was added to PS-coated plates (after standard blocking), incubated for 1 hour, washed and the secondary antibody added. After 1 hour, the plates were washed and developed for 5 minutes using OPD.

[5] = system: human CMV AD169; assay: CMV viral load by plaque assay; assay type: cell-based; settings: for decrease in viral titer: high m.o.i.
[6] = system: H2O2-treated HL-60 tumor cells; assay: Macrophage phagocytosis of PS-positive tumor cells; settings: 5 μg/ml, vs isotype-matched control antibody
[7] = system: L540 human Hodgkin's lymphoma; assay: 3G4 tumor treatment; assay type: in vivo, mice; settings: subcutaneous L540 xenografts
Experimental: (§1) In the subcutaneous model, mice are typically injected with 1×10^7 cells in 0.2 ml. Mice are not anesthetized, but are restrained using a steady grip of mouse skin exposing the right flank. A 1 ml syringe with a 23 gauge needle is used to inject 1×10^7 cells in 200 μl, just under the skin of the mice and a bleb will be seen. It is not unusual to observe a small amount of fluid leak from the injection site. A twisting motion may be used when withdrawing the needle from the subcutaneous injection to reduce this leakage. Tumor volume is measured by L×W×H.
(§2) Treatment was repeated 3 times a week. Animals were monitored twice a week for tumor measurements.

[8] = system: RSV long strain; assay: RSV-infected A-549 cells, plaque assay; settings: MOI 1, 100 μg antibody per well
[9] = system: Tissue Factor (TF)-induced coagulation
[10] = system: tumor cells; assay: Direct effect of 3G4 on tumor cells in vitro; assay type: cell-based
[11] = monkey, in vivo
[12] = system: Pichinde virus; assay type: cell-based
[13] = system: Meth A fibrosarcoma; assay: 3G4 tumor treatment; assay type: in vivo, mouse
Experimental: as §1, §2

[14] = system: orthotopic MDA-MB-231 breast cancer; assay: 3G4 tumor treatment and histology; assay type: in vivo, mice
Experimental: FIG. 17A and FIG. 17B. […] At the conclusion of treatment, animals were perfused and tumors were snap-frozen, cut and stained with an antibody to murine CD31 (rat, anti-mouse CD31), a pan-endothelial marker of murine vasculature (FIG. 17A), or embedded in paraffin and strained with H&E (FIG. 17B).
In the orthotopic model, 1×10^7 cells in 0.1 ml DMEM are typically injected into MFP of anesthetized mice. Mice are anesthetized with 0.075 ml of mouse cocktail injected IP. The mouse cocktail is 5 ml Ketamine (100 mg/ml); 2.5 ml Xylazine (20 mg/ml); 1 ml Acepromazine (10 mg/ml); 11 ml sterile water. Dosage is 0.1 ml per 20-30 grams body weight via the IP route for a duration of 30 minutes.
Once the mouse is anesthetized, as measured by no response to toe/foot pinch, the mouse is laid on its left side and wiped with 70% ethanol just behind the head and around the right forearm/back area. […] 0.1 ml of cells are injected into the fat pad using a 1 ml syringe and a 27-gauge needle, producing a bleb in the fat pad. The incision is closed using a 9 mm sterile wound clip. The mouse is returned to its cage and observed until it has wakened from anesthesia and is mobile. Post-operative health status is determined, and if any signs of distress are observed, the animal is given acetaminophen (0.24 mg/ml)+codeine (0.024 mg/ml) in the drinking water. The wound clip is removed after 1 week. This method is used so that the cells are accurately placed into the selected site and not into the subcutaneous region. Tumors will be approximately 200 μl in volume (L×W×W) in 14-15 days and the take rate is essentially 100%.
as §2

[15] = system: mCMV RVG102; assay: Survival of mCMV-infected mice; assay type: in vivo, Balb/C mice; settings: 1 mg/mouse i.p. day 1, 0.5 mg/mouse every four days until day 26; past 90 days
[16] = mouse, in vivo, iv
[17] = Toxicity of 3G4 in mice; assay type: in vivo, BALB/c mice
Excerpt: The following parameters were specifically examined.
There were no physical signs of toxicity, e.g. hair loss, loss of appetite, etc. […] Marrows in the treated animals were essentially completely cellular (as would be expected for a young mammal). Erythroid, granulocytic, lymphocytic progenitors and megakaryocytes were present in normal numbers.
Mice retain normal physical signs, bone marrow cellularity, white blood cell counts, histology and coagulation functions.

[18] = system: apoptotic tumor cells; assay: Dendritic cell uptake of apoptotic tumor cells; assay type: cell-based; settings: Fc(γ)R mediated internalization of 3G4-ATC complexes
[19] = system: human CMV AD169; assay: CMV-GFP infected HHF-R2 cells, fluorescent microscopy; settings: MOI 0.01
[20] = m.o.i. 0.01 pfu/cell, 100 μg/ml
[21] = 100 μg IP three times a week for 2 to 3 weeks

B1: 3G4: mouse IgG3 kappa monoclonal antibody binding PS and other anionic phospholipids; hybridoma ATCC PTA 4545 (antibody, V domains shown)
VH: EVQLQQSGPELEKPGASVKLSCKASGYSFTGYNMNWVKQSHGKSLEWIGHIDPYYGDTSYNQKFRGKATLTVDKSSSTAYMQLKSLTSEDSAVYYCVKGGYYGHWYFDVWGAGTTVTVSSATTTAPSVYPLVP
VL: DIQMTQSPSSLSASLGERVSLTCRASQDIGSSLNWLQQGPDGTIKRLIYATSSLDSGVPKRFSGSRSGSDYSLTISSLESEDFVDYYCLQYVSSPPTFGAGTKLELKRADAAPTVFIFGRIP
In the case of B1, the “toxicity in treated tumor-bearing mice” value ([1]; 100 μg i.p. 3 times a week) is reported as “No toxicity was observed”, the “localization after intravenous injection” value ([1]; mice bearing various tumors) is reported as “specifically and consistently localized to the tumor, but not to normal organs” and the “binding to heparin, heparan sulfate or double or single stranded DNA” value [2] is reported as “does not bind detectably”. For the same molecule, the “inhibitory effect on growth of bEnd.3 cells” value [3] was “particularly effective”, the “binding to PS adsorbed to ELISA plates in the presence of liposomes” value [4] was “blocked by liposomes prepared from PS, PA, PI, PG and CL” and the “decrease in viral titer” value ([5]; addition delayed to 48 hours) was 2 log10. For the same molecule, the “decrease in viral titer” value ([5]; addition up to 24 hours after infection) was 5-6 log10, the “decrease in viral titer as compared to GV39G-treatment” value ([5]; m.o.i. 0.01 pfu/cell, 50 μg/ml) was 3.5 log10 and the “decrease in viral titer as compared to GV39G-treated cells” value [5, 20] was 6 log10. The “inhibition of viral replication” value [5, 20] was “approximately 99.9999%”, the “inhibition of viral replication compared to GV39G” value ([5]; m.o.i. 3, 50 μg/ml) was 3 logs and the “decrease in viral titer as compared to GV39G-treated cells” value ([5]; m.o.i. 3, 100 μg/ml) was 5 log10. The “increase in phagocytosis of PS-positive cells by macrophages” value [6] was “more than three fold”, the growth retardation [7] was 65% and the “decrease in viral titer” value [8] was 2 log10. For the same molecule, the “inhibition of Tissue Factor (TF)-induced coagulation” value [9] was “weak inhibition”, the “direct inhibitory effect on tumor cells” value [10] was “No direct inhibitory effect on tumor cells was observed” and the side effects [11] was “no side effects have been observed”. For the same molecule, the infected cells [12] was “about one in about a hundred cells”, the “mice with long-term complete remissions” value ([13]; Meth A-bearing mice) was 50% and the growth retardation ([13]; syngeneic Meth A) was 90%. The “mice with long-term complete remissions” value ([14]; MBA-MD-231 tumors) was 30%, the “reduction in microvascular density, treated vs. untreated mice” value ([14]; histological examination) was 70% and the growth retardation ([14]; orthotopic MDA-MB-231) was 50%. The survival [15] was 100%, the Volume of distribution [16] was 0.1 L/kg and the “half-life in the α-phase of clearance” value [16] was 3 h. The “half-life in the β-phase of clearance” value [16] was 120 h, the blood cell counts [17, 21] was “no changes in blood cell counts” and the bodyweight [17, 21] was “gained weight at the same rate as BBG3 treated mice”. For the same molecule, the toxicity ([17]; 1 mg purified 3G4 intraperitoneally) was “no toxicity was observed”, the toxicity ([17]; more than 200 mice, 0.1 mg three times a week for 2-3 weeks) was “no instance of toxicity has been observed” and the “enhancement of DC uptake of apoptotic tumor cells” value [18] was 300%. The “entry of the virus into the cells” value ([19]; day 3, 50 and 100 μg/ml) was “does not appear to significantly inhibit the entry of the virus” and the “spread of CMV from the original infected cell” value ([19]; day 9, 100 and 50 μg/ml) was “restricted to the original singly-infected cell”.

Source: patent US20040175378A1, “Selected antibody compositions and methods for binding to aminophospholipids” (Board of Regents, The University of Texas System, priority 2002, published 2004)
